Laboratory results reported in PMC10253590, “The Product of the Fission Yeast fhl1 Gene Binds to the HomolE Box and Activates In Vitro Transcription of Ribosomal Protein Genes”.

T1: Fhl1 (Schizosaccharomyces pombe, UniProt O14270 1-743)
T1 sequence: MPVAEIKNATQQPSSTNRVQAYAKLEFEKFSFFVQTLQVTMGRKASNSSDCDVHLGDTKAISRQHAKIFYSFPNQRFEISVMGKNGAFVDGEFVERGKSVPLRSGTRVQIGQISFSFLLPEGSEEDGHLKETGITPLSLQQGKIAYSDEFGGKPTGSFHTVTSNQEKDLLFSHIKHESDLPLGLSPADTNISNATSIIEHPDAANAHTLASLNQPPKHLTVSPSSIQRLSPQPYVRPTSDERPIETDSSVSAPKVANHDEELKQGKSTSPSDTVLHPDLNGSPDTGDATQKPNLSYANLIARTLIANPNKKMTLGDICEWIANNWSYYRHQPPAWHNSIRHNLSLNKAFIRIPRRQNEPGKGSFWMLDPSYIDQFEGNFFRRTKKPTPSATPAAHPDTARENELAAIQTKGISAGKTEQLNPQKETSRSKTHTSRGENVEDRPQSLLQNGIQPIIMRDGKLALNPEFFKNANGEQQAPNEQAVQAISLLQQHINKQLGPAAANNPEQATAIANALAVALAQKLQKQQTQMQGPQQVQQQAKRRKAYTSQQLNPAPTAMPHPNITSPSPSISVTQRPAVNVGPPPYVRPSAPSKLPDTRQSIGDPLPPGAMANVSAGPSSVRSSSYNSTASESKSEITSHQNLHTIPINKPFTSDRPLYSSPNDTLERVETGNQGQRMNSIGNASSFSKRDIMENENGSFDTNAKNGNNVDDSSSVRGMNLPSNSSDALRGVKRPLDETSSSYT


Experiments:
Fhl1 [1] = biological target: T1, Fhl1; assay: EMSA; 10 ng Fhl1; poly(dG-dC); 20 mM HEPES pH 7.9, 50 mM KCl, 10 mM MgCl2, 0.1 mM EDTA, 5% glycerol, 5 mM DTT, 0.1 mM PMSF, 5 ug acetylated BSA, 50 ng poly(dG-dC), no PEG; 5 min 25 C then 15; settings: protein: recombinant; tags: His tag (pET15b; Ni-NTA purified); label: 32P 5' end
Fhl1 [2] = biological target: T1, Fhl1; assay: competition; EMSA; 12.5, 25, 50 ng cold competitor vs N1 probe; 20 mM HEPES pH 7.9, 50 mM KCl, 10 mM MgCl2, 0.1 mM EDTA, 5% glycerol, 5 mM DTT, 0.1 mM PMSF, 5 ug acetylated BSA, 50 ng poly(dG-dC), no PEG; 5 min 25 C then 15; settings: protein: recombinant; tags: His tag (pET15b; Ni-NTA purified)
Fhl1 [3] = biological target: T1, Fhl1; assay: competition; EMSA; 50 ng cold competitor vs N1 probe; 20 mM HEPES pH 7.9, 50 mM KCl, 10 mM MgCl2, 0.1 mM EDTA, 5% glycerol, 5 mM DTT, 0.1 mM PMSF, 5 ug acetylated BSA, 50 ng poly(dG-dC), no PEG; 5 min 25 C then 15; settings: protein: recombinant; tags: His tag (pET15b; Ni-NTA purified)

| Binder | binding result (Fhl1 [3]) | other results |
| --- | --- | --- |
| HomolE probe (two tandem HomolE boxes) (dsDNA) DNA 1: TTCGTTGAGGGTAGGGTTGAGGGTAGGGTTATGC DNA 2: GCATAACCCTACCCTCAACCCTACCCTCAACGAA | – | binding result (Fhl1 [1]): binds |
| HE cold competitor (dsDNA) DNA 1: TTCGTTGAGGGTAGGGTTGC DNA 2: GCAACCCTACCCTCAACGAA | – | binding result (Fhl1 [2]): binds |
| mHE cold competitor (dsDNA) DNA 1: TTCGTTGAGTGTAGTGTTGC DNA 2: GCAACACTACACTCAACGAA | no binding | – |
| HD (HomolD) cold competitor (dsDNA) DNA 1: TGAAAACAGTCACATTTTAC DNA 2: GTAAAATGTGACTGTTTTCA | no binding | – |
